Target: the molecule itself
Test: native gel or EMSA

B1: Human recombinant ALDH2 protein (mitochondrial aldehyde dehydrogenase), untreated (enzyme, UniProt P05091 18-517, looked up)
chain: SAAATQAVPAPNQQPEVFCNQIFINNEWHDAVSRKTFPTVNPSTGEVICQVAEGDKEDVDKAVKAARAAFQLGSPWRRMDASHRGRLLNRLADLIERDRTYLAALETLDNGKPYVISYLVDLDMVLKCLRYYAGWADKYHGKTIPIDGDFFSYTRHEPVGVCGQIIPWNFPLLMQAWKLGPALATGNVVVMKVAEQTPLTALYVANLIKEAGFPPGVVNIVPGFGPTAGAAIASHEDVDKVAFTGSTEIGRVIQVAAGSSNLKRVTLELGGKSPNIIMSDADMDWAVEQAHFALFFNQGQCCCAGSRTFVQEDIYDEFVERSVARAKSRVVGNPFDSKTEQGPQVDETQFKKILGYINTGKQEGAKLLCGGGIAADRGYFIQPTVFGDVQDGMTIAKEEIFGPVMQILKFKTIEEVVGRANNSTYGLAAAVFTKDLDKANYLSQALQAGTVWVNCYDVFGAQSPFGGYKMSGSGRELGEYGLQAYTEVKTVTVKVPQKNS
binding result: binds

— PMC5513672 (Chemical research in toxicology, 2017)
